In paper PMC6568194, “Molecular and Biochemical Characterization of a Type II Thioesterase From the Zoonotic Protozoan Parasite Cryptosporidium parvum” (Frontiers in Cellular and Infection Microbiology, 2019):

Substrate: CCCCCCCCCC(=O)SCCNC(=O)CCNC(=O)[C@H](O)C(C)(C)COP(=O)(O)OP(=O)(O)OC[C@H]1O[C@@H](n2cnc3c(N)ncnc32)[C@H](O)[C@@H]1OP(=O)(O)O
Assay: purified protein
Assay type: biochemical, Cryptosporidium parvum
Conditions: 0.1 M HEPES pH 7.4, 50 mM KCl, 50 μM DTNB, MBP-tag background subtracted, temperature not given

B1: CpTEII (MBP-CpTEII) (Cryptosporidium parvum Iowa II) (protein)
chain: MSKSDFDKWFPSYSKVNSHLINLGSRNQPICRLLCIHGAGGSDQIFVKKDLNTGRESSNILLDYAQENGIELLVLQLPGRAGRSHEACYEDIATLINDFYPVFKSHFFGKANLTEYIELIPWVIVGHSMGGLIGFELLKRIKFEQLKDFSAKFGVTDQSGFENKIVKLLREKRIFPELFIIMSSFPPNIPEYDRPWRKNEELNDEEFKQECREWGINQNVFKKGIWEEFEKQLRCDFTMFDSFEMNLVDKIFYCSNQSLYNFMYPLGVDAQLWSASQDSKVTKDIMNKWKELLTSNGNSLDTREIDAQHNFLHDPKARKEWMQDLSTSLDKIILDLEYY
notes: entire ORF (339 aa, 39 kDa) from genomic DNA, N-terminal MBP tag kept (intact fusion assayed), C-terminal His-tag, pMAL-c2e-TEV, expressed in E. coli Rosetta 2
Km: 172.2 µM
kcat: 0.0253 s⁻¹
